Source: patent publication US11732029B2, “Methods and compositions for the treatment of wounds” (The University of Chicago, priority 2017, dated 2023)
“Also recorded” adds a separate entry of the source.

How the values were obtained:
VEGF-A121 [1] = target: T1, VEGF-A121 (Homo sapiens, UniProt P15692); assay: Surface plasmon resonance, vWF against GF; format: binding; set-up: All growth factors (GFs) and chemokines were purchased in their mature forms; purchased PeproTech; host or cells: Escherichia coli; details: vWF immobilized, VEGF-A121 50-800 nM
T1 sequence (P15692 27-147 isoform P15692-9 limits assumed): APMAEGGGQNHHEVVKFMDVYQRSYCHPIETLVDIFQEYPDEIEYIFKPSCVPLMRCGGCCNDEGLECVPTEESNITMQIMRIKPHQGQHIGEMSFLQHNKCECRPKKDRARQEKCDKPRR
Description: SPR assays were performed as described previously2. In brief, measurements were made with a Biacore X100 SPR system or Biacore 3000 SPR system (GE Healthcare). Plasma-derived vWF was immobilized via amine coupling on a C1 chip (GE Healthcare) for 2000 resonance units (RU) according to the manufacturer's instructions. Recombinant human VEGF-A165, VEGF-A121, or PDGF-BB was flowed at increasing concentrations in the running buffer at 30 μL/min. The sensor chip was regenerated with glycine at pH 2 for every cycle. Specific binding of GFs to vWF was calculated automatically using the response to a non-functionalized channel as a reference. Binding curves were fitted using BIAevalution software (GE Healthcare). vWF-VEGF-A165 binding results were fitted with Langmuir binding kinetics (1:1 binding with drifting baseline Rmax local). vWF-PDGF-BB binding results were fitted with heterogeneous ligand-parallel reaction.

FGF-2 = FGF-2 (Homo sapiens, UniProt P09038); assay: Recombinant GF binding to the vWF recombinant protein and A1 HBD peptide (ELISA); set-up: All growth factors (GFs) and chemokines were purchased in their mature forms; purchased PeproTech; host or cells: Escherichia coli; details: plate coated with vWF protein, A1 domain or HBD peptide, 1 μg/mL GF
Description: (§1) ELISA tests were performed as described above. In brief, ELISA plates were coated with 1 μg/mL of FL-vWF (WT or R1341Q), 1 μg/mL of vWF A1 recombinant protein (U-Protein Express) or 1 μg/mL of vWF A1 HBD peptide (sequence […], (SEQ ID NO:50) chemically synthesized by Genscript) at 37° C. overnight. After blocking with 2% BSA solution containing PBS-T, 1 μg/mL of the recombinant human proteins VEGF-A121, VEGF-A165, PlGF-1, PlGF-2, PDGF-BB, FGF-2, CXCL-12α and CXCL-12γ were added. 1 μg/mL of BSA served as non-binding protein control. Bound GF or chemokine was detected with biotinylated antibodies for human VEGF-A, PlGF, PDGF-BB, FGF-2, or CXCL-12 (R & D Systems). The antibodies were detected by streptavidin-HRP (R & D Systems). Color development and the absorbance measurement were done as described above.

VEGF-A121 [2] = target: T1, VEGF-A121; assay: as above; set-up: All growth factors (GFs) and chemokines were purchased in their mature forms; purchased PeproTech; host or cells: Escherichia coli; details: plate coated with vWF protein, A1 domain or HBD peptide, 1 μg/mL GF
Description: as §1

PlGF-1 = target: T2, PlGF-1 (Homo sapiens, UniProt P49763); assay: as above; set-up: All growth factors (GFs) and chemokines were purchased in their mature forms; purchased PeproTech; host or cells: Escherichia coli; details: plate coated with vWF protein, A1 domain or HBD peptide, 1 μg/mL GF
T2 sequence (P49763 19-149 isoform P49763-2 limits assumed): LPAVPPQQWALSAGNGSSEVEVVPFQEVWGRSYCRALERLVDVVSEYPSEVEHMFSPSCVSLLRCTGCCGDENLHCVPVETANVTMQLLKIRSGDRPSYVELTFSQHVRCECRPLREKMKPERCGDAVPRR
Description: as §1

PlGF-2 = target: T3, PlGF-2 (Homo sapiens, UniProt P49763); assay: as above; set-up: All growth factors (GFs) and chemokines were purchased in their mature forms; purchased PeproTech; host or cells: Escherichia coli; details: plate coated with vWF protein, A1 domain or HBD peptide, 1 μg/mL GF
T3 sequence (P49763 19-170 isoform P49763-3 limits assumed): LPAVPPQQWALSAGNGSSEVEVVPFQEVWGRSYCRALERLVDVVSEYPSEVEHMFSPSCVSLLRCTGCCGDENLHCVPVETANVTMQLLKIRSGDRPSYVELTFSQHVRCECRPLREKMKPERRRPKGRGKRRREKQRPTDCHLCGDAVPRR
Description: as §1

[3] = test system: full-thickness back-skin wounds in db/db mice; assay: Mouse diabetic skin wound healing model, histomorphometric analysis; format: in vivo; details: fibrin matrix, 100 ng VEGF-A165 and 50 ng PDGF-BB, after 7 d, vs fibrin alone
Description: Histomorphometric analyses were performed as previously reported. Briefly, an area of 8 mm in diameter, which includes the complete epithelial margins, was excised. Wounds were fixed with 2% PFA and cut in the center into two and embedded into paraffin. Histological analysis was performed on 5 μm serial sections. Images were captured with an EVOS FL Auto microscope (Life Technologies). The extent of re-epithelialization and granulation tissue formation were measured by histomorphometric analysis of tissue sections (H&E staining) using ImageJ software. For analysis of re-epithelialization, the distance that the epithelium had traveled across the wound was measured; the muscle edges of the panniculus carnosus were used as an indicator for the initial wound edges, and re-epithelialization was calculated as the percentage of the distance of edges of the panniculus carnosus muscle. For granulation tissue quantification, the area covered by a highly cellular tissue was determined.
Diabetic skin wound healing assays were performed in the mouse as previously reported. Briefly, C57BLKS/J-m/Lepr db (db/db) male mice were 10 to 12 wk old at the start of the experiments. Their backs were shaved and four full-thickness punch biopsy wounds (6 mm in diameter) were created in each mouse. […]

FGF-2, sequence (P09038 143-288): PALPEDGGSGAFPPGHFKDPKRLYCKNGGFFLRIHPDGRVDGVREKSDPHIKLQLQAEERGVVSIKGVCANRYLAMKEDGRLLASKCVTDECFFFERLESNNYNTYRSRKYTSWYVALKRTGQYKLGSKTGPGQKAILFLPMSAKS

Row | Substance | binding to VEGF-A121 by SPR (VEGF-A121 [1]) | binding to FGF-2 (FGF-2) | binding to VEGF-A121 (VEGF-A121 [2]) | binding to PlGF-1 (PlGF-1) | binding to PlGF-2 (PlGF-2) | granulation tissue [3] | wound closure [3]
1 | vWF: human plasma-derived von Willebrand factor (EMD Millipore) | did not show significant binding; also recorded: No binding was observed |  |  |  |  |  | 
2 | YIGLKDRKRPSELRRIASQVKYAC [vWF HBD] |  | showed binding | neither VEGF-A121 nor PlGF-1 were able to bind | neither VEGF-A121 nor PlGF-1 were able to bind | showed binding | did not differ | did not differ
